This is an account of results in IntAct's records for PubMed 20095964.

B1: Junctophilin-2 (Mus musculus), Q9ET78 (parent)
chain: MSGGRFDFDDGGAYCGGWEGGKAHGHGLCTGPKGQGEYSGSWNFGFEVAGVYTWPSGNTFEGYWSQGKRHGLGIETKGRWLYKGEWTHGFKGRYGIRQSTNSGAKYEGTWNNGLQDGYGTETYADGGTYQGQFTNGMRHGYGVRQSVPYGMAVVVRSPLRTSLSSLRSEHSNGTVAPDSPAADGPMLPSPPVPRGGFALTLLATAEAARPQGLFTRGTLLGRLRRSESRTSLGSQRSRLSFLKSELSSGASDAASTGSLAEGAEGPDDAAAPFDADIDATTTETYMGEWKNDKRSGFGVSERSSGLRYEGEWLDNLRHGYGRTTLPDGHREEGKYRHNVLVKGTKRRVLPLKSSKVRQKVEHGVEGAQRAAAIARQKAEIAASRTSHAKAKAEAAEQAALAANQESNIARTLAKELAPDFYQPGPEYQKRRLLQEILENSESLLEPPERGLGTGLPERPRESPQLHERETPQPEGGPPSPAGTPPQPKRPRPGASKDGLLSPGSWNGEPGGEGSRPATPSDGAGRRSPARPASEHMAIEALQPPPAPSQEPEVAMYRGYHSYAVRTGPPEPPPLEDEQEPEPEPEPEVRRSDSAPPSPVSATVPEEEPPAPRSPVPAKQATLEPKPIVPKAEPKAKARKTEARGLSKAGAKKKGRKEVAQAKEAEVEVEEVPNTVLICMVILLNIGLAILFVHLLT
partner: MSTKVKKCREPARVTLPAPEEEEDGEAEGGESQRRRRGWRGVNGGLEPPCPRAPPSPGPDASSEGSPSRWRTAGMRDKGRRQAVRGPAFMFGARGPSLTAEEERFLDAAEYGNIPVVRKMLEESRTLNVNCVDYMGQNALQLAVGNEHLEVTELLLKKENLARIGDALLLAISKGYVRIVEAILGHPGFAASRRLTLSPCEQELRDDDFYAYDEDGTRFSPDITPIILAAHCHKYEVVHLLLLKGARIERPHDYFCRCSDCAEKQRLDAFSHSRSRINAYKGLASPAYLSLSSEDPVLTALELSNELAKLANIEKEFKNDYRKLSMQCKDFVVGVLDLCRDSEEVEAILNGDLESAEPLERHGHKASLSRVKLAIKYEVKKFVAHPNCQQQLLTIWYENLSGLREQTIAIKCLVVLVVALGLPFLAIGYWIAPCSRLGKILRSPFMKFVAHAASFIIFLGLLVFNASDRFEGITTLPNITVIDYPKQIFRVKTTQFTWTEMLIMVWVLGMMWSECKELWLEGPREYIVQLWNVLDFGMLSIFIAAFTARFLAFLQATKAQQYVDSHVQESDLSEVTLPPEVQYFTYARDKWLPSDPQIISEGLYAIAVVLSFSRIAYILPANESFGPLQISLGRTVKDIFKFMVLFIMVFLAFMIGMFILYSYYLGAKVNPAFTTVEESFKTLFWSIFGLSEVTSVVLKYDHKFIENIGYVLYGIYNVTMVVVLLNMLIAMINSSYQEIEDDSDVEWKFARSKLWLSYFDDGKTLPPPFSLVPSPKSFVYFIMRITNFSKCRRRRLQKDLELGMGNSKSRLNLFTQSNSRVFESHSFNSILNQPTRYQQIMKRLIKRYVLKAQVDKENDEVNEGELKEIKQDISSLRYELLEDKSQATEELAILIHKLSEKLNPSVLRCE

In this test the parent is B1. To be noted: with trpc3_mouse Trpc3, Q9QZC1.
On to S165F, for which the “effect of a mutation on the interaction” value is “decreasing interaction”.
